These results are taken from the DeepSol protein solubility set.

This series is described as follows: soluble on expression in E. coli; label from the status in PepcDB or PDB records.
Take “MIDINLIREKPDYVKERLATRDKELVSLVDKVLELDKRRREIIKRLEALRSERNKLSKEIGKLKREGKDTTEIQNRVKELKEEIDRLEEELRKVEEELKNTLLWIPNLPHPSVPVGEDEKDNVEVRRWGEPRKFDFEPKPHWEIGERLGILDFKRGAKLSGSRFTVIAGWGARLERALINFMLDLHTKKGYKEICPPHLVKPEILIGTGQLPKFEEDLYKCERDNLYLIPTAEVPLTNLYREEILKEENLPIYLTAYTPCYRREAGAYGKDIRGIIRQHQFDKVELVKIVHPDTSYDELEKLVKDAEEVLQLLGLPYRVVELCTGDLGFSAAKTYDIEVWFPSQNKYREISSCSNCEDFQARRMNTRFKDSKTGKNRFVHTLNGSGLAVGRTLAAILENYQQEDGSVVVPEVLRDYVGTDVIRPE”: the “soluble on expression in E. coli” value is on record as “soluble”.

For the sequence “MIDRQTNEPKQKTRIILAPMQGLVDDVMRDLLTRIGGYDECVSEFVRITHTVHSRSIWLKYVPEIANGNKTFSGTPCTVQLLGSDADNMAANALEAVRFGANKIDLNFGCPAPTVNKHKGGAILLKEPELIFHIVKTLRGRLPAHIPLTAKMRLGYEDKSRALECACAIAEGGACGLTVHARTKAEGYEPPAHWEWIRKIRDSVNIPVTANGDVFSLQDYIGIKTISGCNSVMLGRGAVIRPDLARQIKQYENGGPVKDTDFAEVSKWIRQFFELCLTKEANNKYPLARLKQWLGMMKKEFAAAQNLFDRVRTVKDADEVRNILAEFEREMNT”, the “soluble on expression in E. coli” value was “not soluble”.

For the sequence “MIDSRLLAWAYLSKVVEGPNAHLQKLLKEGHDVERIAFGIKHREEWIGEGLLKNTDSRYSIDTAQTDLETIAKLGGRLITPEDDEWPMEELDHAFGFAASGMSDHVRTYQDDALPPHALWIRGGNLRTLSAQSVTLVGTRAISQYGTEVTREFTQNLVSHQWTIISGGALGVDSVAHSEAVRAQGSTIAIAACGLDRSYPSHNRDLFNQIAKSGKGALVSEYPPGTPPQRHRFLTRNRLVAALSQGTVVVEAAWRSGALNTLSWCAGLGRIAMAVPGPVNTAGSLGCHERIRNGSAQMVTSADDVRSLLGAVGAMDSQTQYELNFAATPVQGLTRNELRVFDALDDRGEGREAASIATEAGLTLQLTIFLLIALNKRGIVKRDGTAWSRNAEMP”, the “soluble on expression in E. coli” value is “not soluble”.

“MIEAEEQQPCKTDFYSELPKVELHAHLNGSISSHTMKKLIAQKPDLKIHDQMTVIDKGKKRTLEECFQMFQTIHQLTSSPEDILMVTKDVIKEFADDGVKYLELRSTPRRENATGMTKKTYVESILEGIKQSKQENLDIDVRYLIAVDRRGGPLVAKETVKLAEEFFLSTEGTVLGLDLSGDPTVGQAKDFLEPLLEAKKAGLKLALHLSEIPNQKKETQILLDLLPDRIGHGTFLNSGEGGSLDLVDFVRQHRIPLGKAWSFRSSR”: the “soluble on expression in E. coli” value is on record as “soluble”.

Turning to “MIEFTALDDLSLLRESVSLECKLAQGRDGKGALPDDFWPTYSAMANTDGGIVILGVRERKGQFEVAGIENPDKLRTELFNHLNNRQKVSVNLLRDEDVRAWPVEGKTLLVVEIPRARRQQRPVYLRGNPLGGHTYRRLHEGDRPLPDEDVKRMLAEQVEDSRDERILPGYGLDDLHLESLRAYRQLFANRDPSHPWNALADQAFLRQIGGWRQHRETGEAGLTLAGLLMFGQWSSITEAVPLCFLDYQERPADYATTVQWLDRIVPDGTWSGNVFDFYRRVVGKLTADIKVPFVLKGDIRQDDTPTHKALREALVNTLVHADYTGRISVLVVKEPAGFVLRNPGGLRVPAQQALQGGMSDCRNRTMQQMFLMIGLGERAGSGMSRIVHGWRDLGHELHLRESYEPHEHSVLEMFWAKGRGATLASESSEESSEESSEETGKKILHLLREEPSLTASALARRLQLTPRAIEKQLAKLKAQKRLRRIGPNKGGHWEVGELEHHHHHH”, the “soluble on expression in E. coli” value is on record as “soluble”.

In the case of “MIEIKDKQLTGLRFIDLFAGLGGFRLALESCGAECVYSNEWDKYAQEVYEMNFGEKPEGDITQVNEKTIPDHDILCAGFPCQAFSISGKQKGFEDSRGTLFFDIARIVREKKPKVVFMENVKNFASHDNGNTLEVVKNTMNELDYSFHAKVLNALDYGIPQKRERIYMICFRNDLNIQNFQFPKPFELNTFVKDLLLPDSEVEHLVIDRKDLVMTNQEIEQTTPKTVRLGIVGKGGQGERIYSTRGIAIGLSAYGGGIFAKTGGYLVNGKTRKLHPRECARVMGYPDSYKVHPSTSQAYKQFGNSVVINVLQYIAYNIGSSLNFKPY”, the “soluble on expression in E. coli” value was “soluble”.

As to “MIEITVNDRLGKKVRIKCNPSDTIGDLKKLIAAQTGTRWEKIVLKKWYTIYKDHITLMDYEIHEGFNFELYYQ”, the “soluble on expression in E. coli” value is reported as “not soluble”.

On to “MIEMLLYEDTRMRAVEILRSLPIGNSGVSGLVQLAATLGASVEFRPSIPPFPESLSKKMNKTQKYTSTQMSQKFDNASHSPTK”, for which the “soluble on expression in E. coli” value is “not soluble”.

In the case of “MIETLEENLEKVFKAIRSLIIEDMAKDMPMLALTLELLQSIPGIGLISAVTILAEIGDFSAFSKPGKLVAYFGIDPSVMQSGEFTGTQNKMSKRGSRLLRRVLFTIALANIRTKRDKTACNPVLMEYYKNKCQSKPKKVALGAVMRKLVNYIFAVLRDRKPYELRSPQEHAQMLAAKHTAA”, the “soluble on expression in E. coli” value was “not soluble”.

Consider “MIFSVRGEVLEVALDHAVIEAAGIGYRVNATPSALATLNQGSQARLVTAMVVREDSMTLYGFSDAENRDLFLALLSVSGVGPRLAMATLAVHDAAALRQALADSDVASLTRVPGIGRRGAERIVLELADKVGPVGASGLTVGTAADGNAVRGSVVEALVGLGFAAKQAEEATDQVLDGELGKDGAVATSSALRAALSLLGKTR”, for which the “soluble on expression in E. coli” value was “soluble”.

For “MIFTYNKEHVGDVLMVIVKDSKGAKLNCERKGKVTRIFLEKNKETVAWNIFAVSNLLDLNGNGQVFLTDEELAVLNAELAKEGFEEKLENNAAAKFVVGEIVEMVAHPDSDHLNICQVKIAEDKTVQIVAGAPNARVGLKTIVALPGAMMPSGGLIFPGNLRGEKSFGMLCSPRELALPKAPQKRGIIELSTDAVIGQAFDAGKHWKGLEHHHHHH”, the “soluble on expression in E. coli” value is recorded as “not soluble”.

Turning to “MIFVGNFIQDEKGKGLRIGFVHYRPFDETVGMNLPEETIRQMGALVDEIPEPEQREGKIPVMYYNPETNTVYYEYEDKPLSLEEEIKYLKELNAELIYQLMMKGAL”, the “soluble on expression in E. coli” value was “not soluble”.

Turning to “MIGLMKGLAYTLKELTREKVTYDYPHEPLPLPDRFRGIQKFYPEKCIVCNQCVNICPTECIQLTGKKHPDPTKKGKVIETYNINFEICILCDLCTEVCPTEAIVMTNNFELAEYSRDALYKDLAWLDENDTNIRRENKP”, the “soluble on expression in E. coli” value is listed as “not soluble”.

Take “MIGVASSAVFDLLASDAVFQSQGEEEYRKFQQKNLHVPLPKGIAFPFIKRLLSVNDLSVDPTDPLVEVILLPRNDPDTGLRVLKTIEHYELGMTRAIFMQGKSPYEYIPALNIALFLSGDKKDVEAAIRAGYPAGQVLDSKFEDDETDKTLRIAFDFDGVLAGDESETIMQASGLSEFHSHEVKNVMQPHNPGPLKEFMVRISKIQSVEEKHKKLNPKYENRIRVSIVTARNAPSHERAMNTLKSWGVMANDAFFLGGIEKGKILSVLKPHIFFDDQSGHLKSTSAVAPSVHIPFGITNHVSTVDAIEPEADQVQQVV”: the “soluble on expression in E. coli” value is “not soluble”.

In the case of “MIIKVIPVGPIAVNCSVVADEKSGEAIIIDPGAEAEKILEAVKDFKVVGIVATHGHIDHVGQVGKLKELFDVPFYMNPLDKFLINDEIWSGFASYIGAVPCPEPDVEISEGDVIRVGDVEFKVLHTPGHTPGLCCLYEEKRRVLIAGDLLFKGSVGRWDLPGGNLVELKKSVKRVLTELPQDTLVICGHYDETTIGQERAFNPFAGELLNG”, the “soluble on expression in E. coli” value was “soluble”.

Regarding “MIILDNSIQTKKRTDSLSKLITVNTLGPEGTSSEYAAKHFISNFTLLQGLNSKLSLHDTFESCIERTLQSPLEYTIVPHAYDGIKHFYMRPDLQLLQIFRCDTPMYGLAVRPDFEFRDDMLDTSVIVSHPSPINLIKYFTRKDVRFKLVNSTSQAARKVKEGLYDIALTNELARQKYGLTFVKTFKSIPMSWSLFGKGDVDDENLEHHHHHH”, the “soluble on expression in E. coli” value is “not soluble”.

For “MIIMYAIGIGDNKEEVLKAYEKLKEEGIEVELIDNPKLLVDKLLDGEIDGAVRGSLSSSKVILYLRERIGKFYRASILKNPFTNGIFLLSPVGIDDISEDKNERIKDKIRIIEFASNFLKNYNIKAKVAVLSGGRLGDLGRNKVVDETIYEAEEIVEHFKGNVDIIHNGILIEEYLKDGYNIIIAVDGITGNLIFRCLGLICKIPGYGAVILSDKNVNFIDTSRNANWERYYNAIKFLIGGDFG”, the “soluble on expression in E. coli” value was “soluble”.

As to “MIIRNVRILICMNTIYYEAHNNLYLNLTNRCSADCIFCIRNFADGVYGYNLRLSKEPSTEEIIEALEGLDLSKYREIVFTGLGEPTLRLDVVLAVTRWLKNQGLRVRLDTNGHAALINPKLDVIAELKKAGLDSVSVSLNAESEEKYNKLCRPVHKNAYRAMLDFVRGAKEAGISTRVTVVKIPEIDVEKCRKVSEELGSDFHIRLLSEAASQEIRE”, the “soluble on expression in E. coli” value is reported as “not soluble”.

For “MIKGTGHMIVNIANDRGMSIDSIRKTIKESVLIAYKKYFGSNENAFIKFDDDTGDLSVYAKKKIVKEVKDSLLEILEKDISKENIVEGDYAYIEINPKVFDRLSIQVAKQRTKNDLQGIEDNEILSEFKSKLNKVVIGYVQQNRNGDLYVNLGNTDGIIPKKYQSPLEHHHHHH”, the “soluble on expression in E. coli” value is “not soluble”.

As for “MIKHESSQPLRVAVAQCRIDWEDKHANLRRMERLAEETAGMADVLFFPEMMTTGFSMNVQALAEPFEEGETIMSLKRVTARHGLALSATMAVRENGKFYNRAYFVTPEGEVFHQDKRHLFRVGGEHEVMTPAQERRIFNYRGWKIFIIPCYDLRFPVWCTNTDLEYDLLVCMANWPEPRRAVWQTLLQARAMENYAYVCGINRVGEDGIGLRYTGDSAILSPRGEYLATCAEGEEKVLYHTLDKGAMQRFRDKFPAWMDMDSFVINYDTDLHP”, the “soluble on expression in E. coli” value is “not soluble”.

As to “MIKKITISDLIRMGDEKEREWFMFHAEVERIFNDTEIVGIKYQATITYVIGELDEDVLNTVFESNWNKTAEVLKKHEIEVEDIKIDKNEKKVEIKLKTSGIVYREGLFEFEDIKELLKDVLARKIEEAWISVLQEHGYILEHHHHHH”, the “soluble on expression in E. coli” value is on record as “soluble”.

In the case of “MIKRVFIDTDIILDVALAREPFFTASKIILAMAENNIIIGNISSNCVANIYYILRKSGGDNKARKFILNIVKYITVIVINHRNVLDSLRSKFSDFEDALQHSSAVENQCEYIITRNIEDYKNAKIKVLLPEEFIGMFLEHHHHHH”, the “soluble on expression in E. coli” value was “not soluble”.

In the case of “MIKVAIIGAENVGKSTLMNALLGGKFSEVSETPGTTKGIIKRAFGKIKLPKTMKNPFGGADELVLIDTAGLFDPEKEIRGKVLSEEKFKELIKEIVNADVIIHMIDATKGLHRGMEKLHYMLKFRYEKPIIVVINKIDLVSREELERLRELVKKRLEQEPILLSLVTYEGFNELLKALTYYAQYVE”, the “soluble on expression in E. coli” value is “soluble”.

For “MILAVLQARMGSSRLPGKSMATLQGEPMIVRQLERLRGARCLSKIIVATSQDPADDALAGFLVSRGNTVHRGAGADILARIARCADAISAVSHVVRLKGDAPFMDPGVVDDAVRMALASGADYTSNRVHRTYPAGLEVEVIKAGVLRQAAAEERDPTARISPTAAIRNQPERWRQAHLRAARDCSRLDWRVKTAADLAFARSVYDALHPGDPDFRMGDVLDLLENRQDIARFAALEHHHHHH”, the “soluble on expression in E. coli” value is listed as “not soluble”.

As to “MILLKSEHGGKRKEMRQDDLMGPNHFSLRIMYKIIIYTYPVSLYAVKELNLSKTFSISALGILNSNSNRSPAKKQTFFSACVAKSYSSFFISICILDLASHL”, the “soluble on expression in E. coli” value is listed as “soluble”.
